# In patent publication US10385103B2, “Cell-permeable (ICP)-SOCS3 recombinant protein and uses thereof” (CELLIVERY THERAPEUTICS, INC., priority 2014, dated 2019):
# Key:
# Assay in all cases: Wound cell migration assay
# Type in all cases: cell-based, human
# Conditions in all cases: 10 μM 2 hrs, additional 24-72 hrs
# [1] = system: Huh-7 cells
# Protocol: (§1) Cells were seeded into 12-well plates, grown to 90% confluence, and incubated with 10 μM Non-CP-SOCS3 (HS3B), iCP-SOCS3 (HM165S3B) in serum-free medium for 2 hrs prior to changing the growth medium (recommended medium by the supplier). The cells were washed twice with PBS, and the monolayer at the center of the well was “wounded” by scraping with a pipette tip. Cells were cultured for an additional 24-72 hrs and cell migration was observed by phase contrast microscopy (Nikon, ECLIPSE Ts2). The migration was quantified by counting the number of cells that migrated from the wound edge into the clear area.
# [2] = system: Chang liver cells
# Protocol: as §1
# [3] = system: HepG2 cells
# Protocol: as §1
molecule,measurement,setting,value
"HM165S3B: His-tagged recombinant protein of aMTD165, human SOCS3 and solubilization domain B; prototype improved cell-permeable SOCS3 (protein, Amino acid sequence of HM165S3B) MGSSHHHHHHSSGLVPRGSHMALAVPVALAIVPVTHSKFPAAGMETSRPLDTSLRLKTFSSKSEYQLVVNAVRKLQESGFYWSAVTGGEANLLLSAEPAGTFLIRDSSDQRHFFTLSVKTQSGTKNLRIQCEGGSFSLQSDPRSTQPVPRFDCVLKLVHHYMETPPPGAPSFPSPPTEPSSEVPEQPSAQPLPGSPPRRAYYIYSGGEKIPLVLSRPLSSNVATLQHLCRKTVNGHLDSYEKVTQLPGPIREFLDQYDAPLGSMAEQSDKDVKYYTLEEIQKHKDSKSTWVILHHKVYDLTKFLEEHPGGEEVLGEQAGGDATENFEDVGHSTDARELSKTYIIGELHPDDRSKIAKPSETL","wound cell migration, Huh-7",[1],suppressed the repopulation of wounded monolayer
same,"wound cell migration, normal Chang liver cells",[2],had no effect on the cell migration
same,"wound cell migration, HepG2",[3],suppressed the repopulation of wounded monolayer
